Target: OM14 assembled in the outer membrane of isolated mitochondria (S. cerevisiae (endogenous in yeast)) (UniProt P38325)
Assay: co-sedimentation; 10 μg purified yeast ribosomes with 25 μg highly purified mitochondria (OM14^+ or OM14Δ, from NAC-deleted cells), 5 min at room temperature in MA buffer, 10,000 g; Rpl3 in the pellet normalised to Tom20

UniProt P38325, sequence (P38325 whole entry): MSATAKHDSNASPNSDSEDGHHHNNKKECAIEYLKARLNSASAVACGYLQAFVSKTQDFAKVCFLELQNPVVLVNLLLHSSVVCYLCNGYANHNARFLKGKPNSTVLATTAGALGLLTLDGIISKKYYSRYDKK

Question: Which fold ribosomal association, mitochondria with OM14 over OM14Δ mitochondria does the source give for “yeast cytosolic ribosomes (from UniProt P14126 1-387) (complex)” here?
Answer: > 2 fold

— paper PMC4268710
